Test [1] addresses His-tagged human AXL extracellular domain (recombinant) (human) (UniProt P30530). As to the kind of experiment: SPR classical sandwich assay (IBIS MX96): 100 nM analyte over AXL-His ECD held by surface-captured 23203-1; white cell = sandwiching.
In test [2] the target is chimeric mouse AXL ECD with human Ig1 domain, His-tagged (human; mouse) (UniProt Q00993). The test can be described thus: BLI (Octet QK384), His-tagged protein captured on Anti-Penta-HIS sensors, antibody at saturating conditions; white cell. A general note: Biolayer interferometry detects binding as a change in optical thickness at a sensor tip.
Test [3] has as its target His-tagged human AXL extracellular domain (recombinant) (human) (UniProt P30530). The test can be described thus: SPR classical sandwich assay (IBIS MX96): 100 nM analyte over AXL-His ECD held by surface-captured 10G5 analogue; grey cell = blocked (self).
Test [4] shares this target. The test can be described thus: SPR classical sandwich assay (IBIS MX96): 100 nM analyte over AXL-His ECD held by surface-captured 22995; white cell = sandwiching.
For test [5] the target is unchanged. The test can be described thus: SPR classical sandwich assay (IBIS MX96): 100 nM analyte over AXL-His ECD held by surface-captured YW327.6S2 IgG1-LALA analogue; white cell = sandwiching.
Test [6] shares this target. As to the kind of experiment: SPR classical sandwich assay (IBIS MX96): 100 nM analyte over AXL-His ECD held by surface-captured 22883; grey cell = blocked.
For test [7] the target is unchanged. The test can be described thus: BLI (Octet QK384), His-tagged protein captured on Anti-Penta-HIS sensors, antibody at saturating conditions; row HuAXL_ECD, the reference of the normalization.
Test [8] shares this target. The test can be described thus: SPR classical sandwich assay (IBIS MX96): 100 nM analyte over AXL-His ECD held by the surface-captured Control antibody (f2); white cell = sandwiching.

His-tagged human AXL extracellular domain (recombinant) (human), sequence (P30530 26-451): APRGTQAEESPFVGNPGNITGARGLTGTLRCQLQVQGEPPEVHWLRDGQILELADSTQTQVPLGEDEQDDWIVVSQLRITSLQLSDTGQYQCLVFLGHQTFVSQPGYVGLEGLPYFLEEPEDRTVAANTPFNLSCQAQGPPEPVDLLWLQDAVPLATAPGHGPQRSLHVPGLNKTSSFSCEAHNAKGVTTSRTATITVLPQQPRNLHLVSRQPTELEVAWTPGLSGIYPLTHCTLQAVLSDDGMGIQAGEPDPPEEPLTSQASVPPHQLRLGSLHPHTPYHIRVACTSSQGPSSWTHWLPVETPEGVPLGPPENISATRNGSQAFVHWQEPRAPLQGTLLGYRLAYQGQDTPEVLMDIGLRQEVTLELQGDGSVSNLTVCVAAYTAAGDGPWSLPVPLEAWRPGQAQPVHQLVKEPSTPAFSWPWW
chimeric mouse AXL ECD with human Ig1 domain, His-tagged (human; mouse), sequence (Q00993 other isoform, or with tags, fused parts or gaps mutant limits assumed): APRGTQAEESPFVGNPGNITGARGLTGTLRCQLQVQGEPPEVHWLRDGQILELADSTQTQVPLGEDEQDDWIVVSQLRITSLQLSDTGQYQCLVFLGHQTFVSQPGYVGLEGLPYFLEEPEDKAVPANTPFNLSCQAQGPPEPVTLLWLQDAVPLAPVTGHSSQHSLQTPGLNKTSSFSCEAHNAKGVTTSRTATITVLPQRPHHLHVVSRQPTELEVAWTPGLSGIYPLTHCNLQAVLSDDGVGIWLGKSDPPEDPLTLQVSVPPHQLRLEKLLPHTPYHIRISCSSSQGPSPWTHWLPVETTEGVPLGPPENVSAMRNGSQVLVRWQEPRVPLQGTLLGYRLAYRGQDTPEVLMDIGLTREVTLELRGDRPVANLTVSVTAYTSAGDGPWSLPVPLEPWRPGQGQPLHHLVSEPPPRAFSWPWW

B1: 10G5 analogue (BerGenBio) (antibody, from another filing, V domains shown)
VH: QVQLQQSGAELVRPGASVKLSCKASGYSFTDFYINWVRQRPGQGLEWIARIFPGGDNTYYNEKFKGKATLTAEESSSTAYIQLSSLTSEDSAVYFCARRGLYYAMDYWGQGISVTVSS
VL: DVLMTQTPLSLPVSLGDQASISCRSSQSLVHSNGIPYLHWYLQKPGQSPKLLIYRVSNRFSGVPDRFSGSGSGTDFTLKISRVEAEDLGVYFCSQGTHVPPTFGGGTKLEIK
With B1, the normalized SPR sandwich response was 1.2 in test [1]; -0.2 in test [3]; 1.3 in test [4]; 1.6 in test [5]; -0.1 in test [6]; 1.2 in test [8]. Moreover, the BLI response (nm) normalized to full-length human AXL-ECD in test [2] worked out at 0.9; in test [7], 1.

The record behind these values is patent US20210269532A1.
